Experimental data: the nanobody polyreactivity screen of Harvey et al. (2022)

Assay: yeast display, Sf9 membrane polyspecificity reagent, FACS + sequencing; frameworks hold sequencing errors
Outline: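 A nanobody's polyreactivity label depends on the gate it was sorted from. Yeast display cells were stained with 10% biotinylated, detergent-solubilized Sf9 membrane reagent for 1 hour at 4 °C, enriched on streptavidin microbeads and sorted by FACS. The low and high (top ~1%) gates were set on anti-HA fluorescence for expression and streptavidin fluorescence for reagent binding.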

Row | Sequence | polyreactivity (PSR sort gate)
1 | QVQLVESGGGLVQAGGSLRLSCAASGLTFLRNGMGWYRQAPGKERELVASITRSGARTYYADSVKGRFTISRDNAKNTVYLQMNSLKPEDTAVSYCAARAYVSHYGVSNFGDYYWGQGTQVTVSS | high polyreactivity
2 | QVQLVESGGGLVQAGGSLRLSCAASGFIFTQYAMGWYRPAPGKEWELVAAITRSGGRTYYADSVKGRFTISRDNAKNTVYIQMNSLKPEDTAVYYCAVDTVTRTVLVYGDRNDSWGQGTQVTVSS | high polyreactivity
3 | QVQLVESGGGLVQAGGRLRLTCAASGSTFPTYAMGWYRQAPGKERELVAAISTRGGSTYYADSVKGRFTISRDNAKNTVYLQMNSLKPEDTAVYYCATGKSLGRYHYEYWGQGSQVTVSS | low polyreactivity
4 | QVQLVESGGGLVQAGGSLRLSCAASGSIFRYNAMGWYRQAPGKEREFVAIISYAGVRTYYADSVKGRFTISRDNAKNTVYLQMNSLKPEDTAVYYCAADFKQKGHRTRTTYWGQGTQVTVSS | high polyreactivity
5 | QVQLVESGGGLVQAGGSLRLSCAASGSIIKPYDMGWYIQAPGKERELVAAIRSSGGRTNYADSVKGRFTISRDNAKNTVYLQMNSLKPEDTAVYYCAAGYVSYWYYRYDYWGQGTQVTVSS | high polyreactivity
6 | QVQLVESGGGLFQAGGSLRLSCAASGRIFGAYTKRSYRQAPGKERELVAAITGRGGGTYYADSVKGRFTISRDNAKNTVYLQMNSLKPEDTAVYYCNVKLYYYYFRMYYWGQGTQVTVSS | low polyreactivity
7 | QVQLVESGGGLVQAGGSLRLSCAASGRTFALNAMGWSRQAPGKERELVAAISWSSGRTYYADSVKGRFTISRDIAKNTVYLQMNSLKPEDTAVYYCAAYAQKRYYWGQGTQVTVSS | high polyreactivity
8 | QVQLVESGGGLVQAGGSLRLSCAASGITFVLNVMGWNRQAPGKERELVAAISASGGRTYYADSVKGRFTISRDNAKHTVYLQMNSLKPEDTAVYYCNAVLPRYTFRSGVFEYDWGQGTQVTVSS | high polyreactivity
9 | QVQLVESGGGLVQAGGSLRLSCAASGSTCRGYAMGWYRQAPGKEREFVAAISRRGGTTYYADSVKGRFTISRDNAKNTVYLQMNSLKQEDTAVYYCNKVYYQHYLAFDYWGQGTQVTVSS | high polyreactivity
10 | QVQLVESGGGLVQAGGSLRLSCAASGIIFDEYAMGWYRQAPGKERELVAAISSRGTNTYYADSVKGRFTISRDHAKNTVYLQMNSLKPEDTAVYYCAARRPPVTRHFGYWGQGTQVTVSS | high polyreactivity
11 | QVQLVESGGGLVQAGGSLRLSCAASGSTIDGNAMGWYRQAPGKERELVAAITSGGSTNYADSVKGRFTISRDNAKNTVYLQMNSLKPEDTAVYYCAADTVSFSILYDYWGQGTQVTVSS | low polyreactivity
12 | QVHLVESRGVLVQAGGSLRLSCAASGFTFNRNAMGWYRQAPGKERELVAAISTSGGRTYYADSVKGRFTISRDNAKNTVYLHMNSLKPEDTAVYYCAADGIYPVGVDYWGQGTQVTVSS | high polyreactivity
13 | QVQLVESGGGLVQAGGSLRLSCAASGITFDYYAMGWYRQAPGKERELVADISSSGGSTYYADSVKGRFTISRDNAKNSVYLQMNSLKPEDTAVYYCAAVVTKYPTTGFGYWGQGTQVTVSS | high polyreactivity
14 | QVQLVESGGGLVQAGGSLRLSCAASGYIFHLYGMGWYRQAPGKERELVARISYRGGSTYYADSVKGRFTISRDNAKNTVYLQMNSLKPEDTAVYYCAKDYYKHYYWGQGTQVTVSS | high polyreactivity
15 | QVQLVESGGGLVQAGGSLRLSCAASGITFRFNAMGWYRQAPGKERELVAAITSSGGRTYYADSVKGRFTISRDNAKNTVYLQMNSLKPEDTAVYYCNVRRLASYSFPYGYWGQGTQVTVSS | high polyreactivity
16 | QVQLVESGGGLVQAGGSLRLSCAASGSTFDFYAMGWYRQAPGKERELVAAITSGGTTNYADSVKGRFTISRDNAKNTVYLQINSLKPEDTAVYYCNAYYLGWYRVRAVTGYYYWGQGTQVTVSS | low polyreactivity
17 | QVQLVESGGGLVQAGGSLRLSCAASGRIFARKAMGWYRQAPGKEGELVARIRASGGSTYYADSVKGRFTISRDNAKNTVYLQMNSLKPEDTAVYYCNARTSSPYRVDYWGQGTQVTVSS | high polyreactivity
18 | QVQLVESGGGLVQAGGSLRISCAASGRICIYYTMGWYRQAPGKDREFVAAITYSGGSTRYADSVKGRFTISRDNAKNTVYFQMNSLKTEVTAVYYCAAKFSVRRGFDYWGQGTQVTVSS | low polyreactivity
19 | QVQIVESGGGLVQAGGSHRLSCAASGSTFASNTKGWYTQAPGKERELVATITQSGGTRYYADSVKGRFTISRDNAKYTVYFQMNSLKPEDTAVYDCATDVGYFYTVVGGYDYWGQGTQVTVSA | low polyreactivity
20 | QVQLVESGGGLVQAGGSLRLSCAASGSIFTYNAMGWYRQAPGKERELVASISSGGITNYADSVKGRFTISRDNAKNTVYLQMNSLKPEDTAVYYCATEYLYVDFFIRYDYWGQGTQVTVSS | low polyreactivity
21 | QVQLVESGGGLVQAGGSLRLSCAASGITFYYYAMGWYRQAPGKERELVAAINWSGTSTYYADSVKGRFTISRDNAKNTVYLQMNSLKPEDTAVYYCNAERGRSFWWAYDYWGQGTQVTVSS | low polyreactivity
22 | QVQLVESGGGLVQAGGSLRLSCAASGRIFVPYAMGWYRQAPGKERELVAAISRSSPTYYADSVKGRFTISRDNAKNSVYLQMNSLKQEDTAGYYCAAAYYATTPKADYHFRGYEYWGQGTQVTVSS | high polyreactivity

Row | Sequence | polyreactivity (PSR sort gate)
23 | QVQLVESGGGLLQAGGSLRLSCAASGRTYVWNAMGWSRQAPGKERELVAGISWRGGSTYYADSVKGRFRISRDNAKNTVYLQKNSLKPEDTAVYYFAASARFVTYKMYYWGQGTQVTVSS | high polyreactivity
24 | QVQLVESGGGLVQAGGSLRLSCAASGSNSVYNAMGWYRQAPGKERELVAAISWSGGRTSYADSVKGRFTISRDNAKNTVYLQMNSLKPEDTAVYYCAADELTVLWDEDYWGQGTQVTVSS | low polyreactivity
25 | QVQLVESGGGLVQAGCSLRLSCAASGFTFGSYAMGWYRQAPWKEREFVAAIRRSGSSTYYADSVKGRFTISRDNAKNTVYLQMNSLKPEDTAVYFCAADVYRRLRRYRYYYLGQGTQVTVSS | low polyreactivity
26 | RVQLQESGGGLVQAGGSLRLICAASGTNFIRGDMGWYRQAPGKEREFVATIDNGSNTYYADSEKGRFTISRDNAKNAVYLQMNCLKPGDTAVYYCVVDYQLSGRLRYWGQGTQVTLSS | low polyreactivity
27 | QVQLVESGGGLVQAGGSLRLSCAASGITFNRYAMGWYRQAPGKERELVARISLRGGNTYYADSVKGRFTISRDNAKNTVYLQMNSLKPEDTAVYYCAVRGRASLRGTRYGYWGQGTQVTVSS | high polyreactivity
28 | QVQLVESGGGLVQVGGSLRLSCAASGRTFWWYAMGWYRQAPGKERELVAAISRGSTNYADSVKGRFTISRDNAKNTVYLQMNSLKPEDTAVYYCNAVSLYQSHDYDYWGQGTQVTVSS | low polyreactivity
29 | QVQLVESGGGLVQAGGSLRLSCAASGRILRYNAMGCDRQAPGKERELVASISGNGGSTYYADSVKGRFTISRDNAKNTVYLQMNSLKPEDTAVYYCNKYSYSSRGQKEYDYWGQGTQVTVSS | low polyreactivity
30 | QVQLVESGGGLVQAGGSLRLSCAASGLTFYSYARGWYRQAPGKERELVATISGGGSTTYADSVKGRFTISRDNAKNTVYLQMNSLKPEDTAVYYCAAGYFLPVVWSTTNYIYDYWGQGTQVTVSS | high polyreactivity
31 | QVQLQESGGDLEQAGGSLRLSCTASGTISDVRVMGWYRQAPGKERELVATISYVTITYYADSVKGRFTISRDSEKHRVSADDEPESGRYRGVLLRYYWGLGTQVTVSS | low polyreactivity
32 | QVQLVESGGGLVQAGGSLRLSCAASGSIFLGNAMGWYRQAPGKERELVAAITSRGGRTYYADSVKGRFTISRDNAKNTVYLLMNSLKPEDTAVYYFAVLGFGALDFDSWGQGTEVTVSS | high polyreactivity
33 | QVQLVESGGGLVQAGGSLRLSCAASGSIFRPYAMGWYRQAPGKERELVAAISGSGGTTYYADSVKGRFTISRDNAKNTVYLQMNSLKTEETAVYYCAARNFSAFWLGGYDYWGQGTQVTVSS | low polyreactivity
34 | QVQLQERAAWCRRAGSLRLSCAASGNISDYYFMGWYRQAPGKERELVAAIAPGSNTYYADSVKGRFTISRDNAKNTVYLQMNSLKPEDTAVCFCAADSTQYTWFDYWGQGTQVTVSS | low polyreactivity
35 | QVQLVESGGGLVQAGGSLRLSCAASGIIFAHYAMGWYRQAPGKERELVAAISSSGATTYYADSVKGRFTISRDNAKNTVYFQMNSLKPEDTAVYYCNTETYHVRRLFDYWGQGTQVTVSS | low polyreactivity
36 | QVQLVESGGGLVQAGGSLRLSCAASGRTLRGYAMGWYRKAPGKEREFVAAISSRGGSTYYADSVKGRFTISRDNAKNTVYLQMNSLKPEDTAVYYCAALRPVFATSHARDYWGQGTQVTVSS | high polyreactivity
37 | QVQLVESGGGLVQAGGSLRLSCAASGSIFDYYAMGWYRQAPGKERELVASINSSGTGTFYADSVKGRFTISRDNAKNTVYLQMNSLKPEDTAVYSCATRQAVGYSSGRGYGYWGQGTQVTVSS | low polyreactivity
38 | QVQLVESGGGLVQAGGSLRLSCAASGRIFTGNAMGWYRQAPGKEREWVATITRRGGSTYYADSVKGRFTISRDNAKNTVYLQMNSLKPEDTSVYYCAANRMFSNDKYGYWGQGTQVTVSS | high polyreactivity
39 | QVQLVESGGGLVHAGGSLRLSCAASGSTFIRNAMGWYRQAPGKERELVAAISSSGGRTYYADSVKGRITISRDNAKNTVYVQMNSLKPEDTAVYYCAARYVPPWGRRYYYWGQGTQVTVSS | high polyreactivity
40 | QVQLVESGGGLVQAGGSLRLSCAASGSTFSGSVMGWDRPAPGKERELVAAISNRGGRTYYADSVKGRFTISRDNAKNTVYLQMNSLKPEDTAVYYCAARGVVDAGRTNRPYDYWGQGTQVTVSS | low polyreactivity
41 | QVQLVESGGGLVQAGGSLRLSCAASGRTFALNAMGWYRQAPGKERELVADISYSGGSTYYADSVKGRFTISRDNAKNTVYLQMNSLKPEDTAVYYCAADSPWYVAYYYGYRVDYWGQGTQVTVSS | high polyreactivity
42 | QVQLVESGGGLVQAGGSLRLICAASGYIFVRNAMGWYRQAPGKERELVAAISGSGGSTYYADSVKGRFTISRDNAKNTVYLQMNSLKPEDTAVYYSAADYATVTWRGIAYDYWGQGTQVTVSS | low polyreactivity
43 | QVQLVESGGGLVQAGGSLRLSCAASGSTFRYYAMGGSRQEPGKESELVAVISTSGNTYYADSVKGRFTISRDNAKNSVYLQMNSLKPEDTAVYYCAARGVGGQISQEYDYWGQGTQVTVSS | low polyreactivity
